Experiment [1] deals with Factor X (Homo sapiens (Human)) (UniProt P00742).
Another experiment addresses T1, Mesyl-dFPR-ACC.
T1 sequence (peptide, N-terminal mesyl; D-Phe at position 1 (dF); C-terminal ACC fluorophore): FPR

For experiment [2], the target named is Factor X (FX) (Homo sapiens (Human)) (UniProt P00742).

Residue numbers refer to the chain shown, from its start. Numbers in names are those of the source. Where “and” joins values, the source holds several entries; their conditions need not be identical. Equal entries are not always repeated.

Factor X (FX) (Homo sapiens (Human)), sequence (P00742 41-488 limits assumed): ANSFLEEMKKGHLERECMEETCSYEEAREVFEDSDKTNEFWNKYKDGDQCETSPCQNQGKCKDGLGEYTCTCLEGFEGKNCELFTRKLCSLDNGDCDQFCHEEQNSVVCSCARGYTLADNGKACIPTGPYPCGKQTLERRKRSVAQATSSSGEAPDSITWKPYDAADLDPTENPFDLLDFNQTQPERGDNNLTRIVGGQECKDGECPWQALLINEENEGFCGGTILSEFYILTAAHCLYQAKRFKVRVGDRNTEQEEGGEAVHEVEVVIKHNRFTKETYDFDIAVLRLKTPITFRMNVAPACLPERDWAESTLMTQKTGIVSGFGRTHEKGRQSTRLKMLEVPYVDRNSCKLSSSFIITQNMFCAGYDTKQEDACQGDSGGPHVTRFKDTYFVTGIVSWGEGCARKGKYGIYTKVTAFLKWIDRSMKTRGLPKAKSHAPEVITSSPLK

On to “{Gla swap FIX/E40L}/Q286R/M298Q-FVIIa (enzyme)”, for which, in experiment [1], the kcat/KM (M^-1s^-1), TF-dependent assay is 2.08e+08 M⁻¹ s⁻¹ and the kcat/KM, TF-independent assay is 814 M⁻¹ s⁻¹. Also, the Activity (µmol/sec/µmol), specific activity for mesyl-dFPR-ACC (µmol/sec/µmol) with Mesyl-dFPR-ACC is 1.16. Taken in the same sequence, the figures for T128N/P129A/S222A-FVIIa (enzyme) were 6.25e+07 M⁻¹ s⁻¹, 4.8 M⁻¹ s⁻¹ and 2.7.

In the case of “Gla swap FIX/S222A/T239V/Q286R-FVIIa (enzyme)”, in experiment [1], the kcat/KM (M^-1s^-1), TF-dependent assay is 2.03e+08 M⁻¹ s⁻¹ and 9.94e+07 M⁻¹ s⁻¹. For the same molecule, the Activity (µmol/sec/µmol), specific activity for mesyl-dFPR-ACC (µmol/sec/µmol) with Mesyl-dFPR-ACC came to 0.66.

Take WT (NovoSeven®) FVIIa (enzyme): the Activity (µmol/sec/µmol), specific activity for mesyl-dFPR-ACC (µmol/sec/µmol) with Mesyl-dFPR-ACC was 2.31. The same measure, in the same setting: the value for WT FVIIa (enzyme) was 2.4.

B1: FVIIa variant T239H (enzyme)
chain: ANAFLEELRPGSLERECKEEQCSFEEAREIFKDAERTKLFWISYSDGDQCASSPCQNGGSCKDQLQSYICFCLPAFEGRNCETHKDDQLICVNENGGCEQYCSDHTGTKRSCRCHEGYSLLADGVSCTPTVEYPCGKIPILEKRNASKPQGRIVGGKVCPKGECPWQVLLLVNGAQLCGGTLINTIWVVSAAHCFDKIKNWRNLIAVLGEHDLSEHDGDEQSRRVAQVIIPSTYVPGTHNHDIALLRLHQPVVLTDHVVPLCLPERTFSERTLAFVRFSLVSGWGQLLDRGATALELMVLNVPRLMTQDCLQQSRKVGDSPNITEYMFCAGYSDGSKDSCKGDSGGPHATHYRGTWYLTGIVSWGQGCATVGHFGVYTRVSQYIEWLQKLMRSEPRPGVLLRAPFP
As for B1, the kcat/KM, TF-Dependent Indirect Assay in experiment [2] stood at 9.9e+06 M⁻¹ s⁻¹.

B2: FVIIa variant H216A/S222A (enzyme)
chain: B1 chain with H216A, S222A, H239T
Take B2: the kcat/KM, TF-Dependent Indirect Assay in experiment [2] stood at 5.46e+07 M⁻¹ s⁻¹.

B3: FVIIa variant S222A/H257A/Q286R/M298Q (enzyme)
chain: B1 chain with S222A, H239T, H257A, Q286R, M298Q
Take B3: the kcat/KM, TF-Dependent Indirect Assay in experiment [2] worked out at 2e+08 M⁻¹ s⁻¹.

B4: FVIIa variant T239I (enzyme)
chain: B1 chain with H239I
On to B4, for which the kcat/KM, TF-Dependent Indirect Assay in experiment [2] came to 3.5e+07 M⁻¹ s⁻¹.

B5: FVIIa variant S222A/Q286R/Q366V (enzyme)
chain: B1 chain with S222A, H239T, Q286R, Q366V
Take B5: in experiment [2], the kcat/KM, TF-Dependent Indirect Assay was 1.27e+08 M⁻¹ s⁻¹.

B6: FVIIa variant Q286R/M298Q/K341D (enzyme)
chain: B1 chain with H239T, Q286R, M298Q, K341D
Turning to B6, the kcat/KM, TF-Dependent Indirect Assay in experiment [2] turned out to be 1.18e+07 M⁻¹ s⁻¹.

B7: FVIIa variant A175S/Q286R/Q366V (enzyme)
chain: B1 chain with A175S, H239T, Q286R, Q366V
Take B7: the kcat/KM, TF-Dependent Indirect Assay in experiment [2] stood at 8.08e+07 M⁻¹ s⁻¹.

B8: FVIIa variant A175S/S222A/Q366V (enzyme)
chain: B1 chain with A175S, S222A, H239T, Q366V
With B8, in experiment [2], the kcat/KM, TF-Dependent Indirect Assay came out at 3.78e+07 M⁻¹ s⁻¹.

B9: FVIIa variant T239N (enzyme)
chain: B1 chain with H239N
Consider B9, for which, in experiment [2], the kcat/KM, TF-Dependent Indirect Assay worked out at 1.64e+07 M⁻¹ s⁻¹.

B10: FVIIa variant Q366V/H373V (enzyme)
chain: B1 chain with H239T, Q366V, H373V
B10: the kcat/KM, TF-Dependent Indirect Assay in experiment [2] was 1.84e+07 M⁻¹ s⁻¹.

B11: FVIIa variant S222E (enzyme)
chain: B1 chain with S222E, H239T
Turning to B11, in experiment [2], the kcat/KM, TF-Dependent Indirect Assay came out at 5.48e+07 M⁻¹ s⁻¹.

B12: FVIIa variant S222A/H373A (enzyme)
chain: B1 chain with S222A, H239T, H373A
For the molecule B12, in experiment [2], the kcat/KM, TF-Dependent Indirect Assay came out at 3.64e+07 M⁻¹ s⁻¹.

B13: FVIIa variant S119N/L121S (enzyme)
chain: B1 chain with S119N, L121S, H239T
As to B13, in experiment [2], the kcat/KM, TF-Dependent Indirect Assay was found to be 5.75e+07 M⁻¹ s⁻¹.

B14: FVIIa variant Q286M (enzyme)
chain: B1 chain with H239T, Q286M
Regarding B14, the kcat/KM, TF-Dependent Indirect Assay in experiment [2] came to 5.25e+07 M⁻¹ s⁻¹.

B15: FVIIa variant S222V (enzyme)
chain: B1 chain with S222V, H239T
As to B15, the kcat/KM, TF-Dependent Indirect Assay in experiment [2] came to 6.04e+07 M⁻¹ s⁻¹.

B16: FVIIa variant S222A/H257A/Q286R/Q366V (enzyme)
chain: B1 chain with S222A, H239T, H257A, Q286R, Q366V
For B16, in experiment [2], the kcat/KM, TF-Dependent Indirect Assay worked out at 1.86e+08 M⁻¹ s⁻¹.

B17: FVIIa variant A51N (enzyme)
chain: B1 chain with A51N, H239T
B17: the kcat/KM, TF-Dependent Indirect Assay in experiment [2] came out at 1.02e+08 M⁻¹ s⁻¹.

B18: FVIIa variant S222A/H257A/M298Q (enzyme)
chain: B1 chain with S222A, H239T, H257A, M298Q
For the molecule B18, the kcat/KM, TF-Dependent Indirect Assay in experiment [2] came to 7.75e+07 M⁻¹ s⁻¹.

B19: FVIIa variant Q286R/Q366V (enzyme)
chain: B1 chain with H239T, Q286R, Q366V
For B19, in experiment [2], the kcat/KM, TF-Dependent Indirect Assay came to 7.92e+07 M⁻¹ s⁻¹.

B20: FVIIa variant Q286R/H373F (enzyme)
chain: B1 chain with H239T, Q286R, H373F
As to B20, the kcat/KM, TF-Dependent Indirect Assay in experiment [2] was 9.08e+07 M⁻¹ s⁻¹.

B21: FVIIa variant Q286R/Q366N (enzyme)
chain: B1 chain with H239T, Q286R, Q366N
Regarding B21, the kcat/KM, TF-Dependent Indirect Assay in experiment [2] was 5.42e+07 M⁻¹ s⁻¹.

B22: FVIIa variant Q366V/H373L (enzyme)
chain: B1 chain with H239T, Q366V, H373L
On to B22, for which the kcat/KM, TF-Dependent Indirect Assay in experiment [2] was 3.07e+07 M⁻¹ s⁻¹.

B23: FVIIa variant S222D (enzyme)
chain: B1 chain with S222D, H239T
Turning to B23, the kcat/KM, TF-Dependent Indirect Assay in experiment [2] came to 5.34e+07 M⁻¹ s⁻¹.

B24: FVIIa variant Q366L (enzyme)
chain: B1 chain with H239T, Q366L
As to B24, in experiment [2], the kcat/KM, TF-Dependent Indirect Assay came out at 6.87e+07 M⁻¹ s⁻¹.

B25: FVIIa variant Q286L (enzyme)
chain: B1 chain with H239T, Q286L
B25: the kcat/KM, TF-Dependent Indirect Assay in experiment [2] worked out at 2.02e+07 M⁻¹ s⁻¹.

B26: FVIIa variant H257S/Q366V (enzyme)
chain: B1 chain with H239T, H257S, Q366V
Regarding B26, the kcat/KM, TF-Dependent Indirect Assay in experiment [2] amounted to 6.71e+07 M⁻¹ s⁻¹.

B27: FVIIa variant H216A/H257A (enzyme)
chain: B1 chain with H216A, H239T, H257A
Take B27: the kcat/KM, TF-Dependent Indirect Assay in experiment [2] came to 6.62e+07 M⁻¹ s⁻¹.

B28: FVIIa variant S222A/H257A (enzyme)
chain: B1 chain with S222A, H239T, H257A
With B28, the kcat/KM, TF-Dependent Indirect Assay in experiment [2] came out at 5.02e+07 M⁻¹ s⁻¹.

B29: FVIIa variant M298Q/H373F (enzyme)
chain: B1 chain with H239T, M298Q, H373F
Regarding B29, the kcat/KM, TF-Dependent Indirect Assay in experiment [2] was 8.49e+07 M⁻¹ s⁻¹.

B30: FVIIa variant Q286R/M298Q/Q366D (enzyme)
chain: B1 chain with H239T, Q286R, M298Q, Q366D
Turning to B30, the kcat/KM, TF-Dependent Indirect Assay in experiment [2] amounted to 1.91e+07 M⁻¹ s⁻¹.

B31: FVIIa variant H257A/M298Q (enzyme)
chain: B1 chain with H239T, H257A, M298Q
Consider B31, for which the kcat/KM, TF-Dependent Indirect Assay in experiment [2] is 1.28e+08 M⁻¹ s⁻¹.

B32: FVIIa variant S222N (enzyme)
chain: B1 chain with S222N, H239T
B32: the kcat/KM, TF-Dependent Indirect Assay in experiment [2] is 6.82e+07 M⁻¹ s⁻¹.

B33: FVIIa variant H257S/Q286R/Q366V (enzyme)
chain: B1 chain with H239T, H257S, Q286R, Q366V
In the case of B33, the kcat/KM, TF-Dependent Indirect Assay in experiment [2] is 1.58e+08 M⁻¹ s⁻¹.

B34: FVIIa variant P321Y (enzyme)
chain: B1 chain with H239T, P321Y
On to B34, for which the kcat/KM, TF-Dependent Indirect Assay in experiment [2] turned out to be 4.48e+07 M⁻¹ s⁻¹.

B35: FVIIa variant Q286Y (enzyme)
chain: B1 chain with H239T, Q286Y
B35: the kcat/KM, TF-Dependent Indirect Assay in experiment [2] is 1.61e+07 M⁻¹ s⁻¹.

B36: FVIIa variant Q286R/K341D (enzyme)
chain: B1 chain with H239T, Q286R, K341D
As to B36, the kcat/KM, TF-Dependent Indirect Assay in experiment [2] was 1.11e+07 M⁻¹ s⁻¹.

B37: FVIIa variant Q366I (enzyme)
chain: B1 chain with H239T, Q366I
As for B37, the kcat/KM, TF-Dependent Indirect Assay in experiment [2] amounted to 9.37e+07 M⁻¹ s⁻¹.

B38: FVIIa variant P321S (enzyme)
chain: B1 chain with H239T, P321S
For B38, the kcat/KM, TF-Dependent Indirect Assay in experiment [2] is 5.53e+07 M⁻¹ s⁻¹.

B39: FVIIa variant S222A/M298Q (enzyme)
chain: B1 chain with S222A, H239T, M298Q
Take B39: the kcat/KM, TF-Dependent Indirect Assay in experiment [2] worked out at 7.13e+07 M⁻¹ s⁻¹.

B40: FVIIa variant Q366M (enzyme)
chain: B1 chain with H239T, Q366M
Take B40: the kcat/KM, TF-Dependent Indirect Assay in experiment [2] was 6.61e+07 M⁻¹ s⁻¹.

B41: FVIIa variant Q286R/H373A (enzyme)
chain: B1 chain with H239T, Q286R, H373A
Take B41: in experiment [2], the kcat/KM, TF-Dependent Indirect Assay came to 5.89e+07 M⁻¹ s⁻¹.

B42: FVIIa variant Q286R/M298Q/Q366N (enzyme)
chain: B1 chain with H239T, Q286R, M298Q, Q366N
With B42, the kcat/KM, TF-Dependent Indirect Assay in experiment [2] amounted to 1.04e+08 M⁻¹ s⁻¹.

B43: FVIIa variant Q286R/M298Q/H373F (enzyme)
chain: B1 chain with H239T, Q286R, M298Q, H373F
B43: the kcat/KM, TF-Dependent Indirect Assay in experiment [2] is 1.51e+08 M⁻¹ s⁻¹.

B44: FVIIa variant H257S/Q286R (enzyme)
chain: B1 chain with H239T, H257S, Q286R
As for B44, the kcat/KM, TF-Dependent Indirect Assay in experiment [2] came to 3.93e+07 M⁻¹ s⁻¹.

B45: FVIIa variant Q286R/Q366D (enzyme)
chain: B1 chain with H239T, Q286R, Q366D
In the case of B45, the kcat/KM, TF-Dependent Indirect Assay in experiment [2] was 1.53e+07 M⁻¹ s⁻¹.

B46: FVIIa variant P321E (enzyme)
chain: B1 chain with H239T, P321E
Take B46: the kcat/KM, TF-Dependent Indirect Assay in experiment [2] turned out to be 5.59e+07 M⁻¹ s⁻¹.

B47: FVIIa variant P321K (enzyme)
chain: B1 chain with H239T, P321K
Consider B47, for which the kcat/KM, TF-Dependent Indirect Assay in experiment [2] turned out to be 3.43e+07 M⁻¹ s⁻¹.

The values are drawn from patent US20090291890A1 (published 2009).
